Source: patent US7626003B2, “Genetically engineered cDNA of rat bcl-x gene and an improved protein” (priority 1999, dated 2009)

Assays:
HeLa cells = assay: Incorporation of TAT-Bcl-xFNK protein in cells (immunofluorescence); format: cell-based; settings: 1 μM in medium, 24 hours, FITC immunofluorescence (FIG. 18)
Protocol: TAT-Bcl-xFNK protein (1 μM) was added to DMEM/F-12 (Life Technologies) containing 10% FBS (fetal bovine serum), a medium for HeLa cells cultured in a Slide Chamber (Lab-Tek), and the cells were incubated in a CO2 incubator for 24 hours. The cells were then washed twice with PBS. The cells were fixed with paraformaldehyde (4%) dissolved in PBS at room temperature for 45 min. The cells were washed 3 times with PBS (5 minutes/round), and incubated in PBS containing 10% FBS for 20 min. The cells were washed 3 times with PBS (5 minutes/round), and treated with 1.5% FBS-PBS solution containing an anti-rat Bcl-xL monoclonal antibody 35-32 (murine origin) for 30 min. The cells were washed 3 times with PBS (5 minutes/round), and treated with 1.5% FBS-PBS solution containing an anti-mouse IgG antibody conjugated with FITC, for 30 minutes. The cells were washed 3 times with PBS (5 minutes/round), mounted in PBS, and sealed to observe under a fluorescence microscope.

hepatocytes = assay: Inhibition of the death of hepatocytes caused by steroid hormone (dexamethasone) in mice; format: in vivo; settings: mouse, 100 μg intraperitoneal 3 hours before 0.5 mg dexamethasone i.p., liver sections 3 hours later (FIGS. 25-27)
Protocol: Three 8-week old mice ([…], 20 g body weight, female) were divided into 3 groups (A, B and C). To the mouse of Group A was intraperitonealy administered PBS solution (0.8 ml) containing 100 μg of TAT-Bcl-xFNK protein (prepared from the soluble fraction). To the mice of Group B and Group C (control) was intraperitonealy administered PBS (0.8 ml) in the same manner. The mice were put back into cages, and after a lapse of 3 hours 0.5 ml of 25% ethanol/PBS solution containing 0.5 mg of a steroid hormone (dexamethasone) was intraperitonealy administered to the mice of Group A and Group B. To the mouse of Group C was intraperitonealy administered 0.5 ml of 25% ethanol/PBS solution. They were put back into cages, and after a lapse of 3 hours killed. Their livers were taken out, and frozen to prepare frozen sections with a cryostat. The sections were stained with hematoxylin-eosin to evaluate the death of hepatocyte.

[1] = system: chondrocyte of cartilage slice from Osteoarthritis patients; assay: Cell death-inhibiting activity in chondrocytes of cartilage slice culture; format: cell-based, human; settings: 0.2 μM in culture medium, up to day 9, hematoxylin-eosin (FIGS. 19-24)
Protocol: Cartilage was obtained from the femoral bone head of Osteoarthritis patients undergoing total hip arthroplasty. The cartilage tissue above the subchondral bone (10×10 mm; 1.2 mm in thickness) was aseptically sliced using a single-edged razor. The cartilage slice was placed in a 24-well plate and incubated with a DMEM/Ham F-12 mixed medium (Life Technologies) containing 20% FBS (fetal bovine serum) at 37° C. in a CO2 incubator. For a comparative experiment, the expression vector of TAT-Bcl-xL was constructed in the same manner as TAT-Bcl-xFNK, and TAT-Bcl-xL protein was partially purified from Escherichia coli (TAT-Bcl-xL preparation has the same purity). TAT-Bcl-xFNK (prepared from the inclusion body) or TAT-Bcl-xL (prepared from the inclusion body) were added to the culture medium at a concentration of 0.2 μM. As a control, an equal amount of PBS (a solvent used to solubilize the proteins) containing 7M urea and 1 mM DTT was added. The culture medium containing the protein was changed on day 4 and day 7. After incubation for 4 days and 9 days, the cartilage slice was frozen to prepare frozen sections using a cryostat. The sections were stained with hematoxylin-eosin to evaluate the death of chondrocyte.

[2] = system: human leukemia cell line Jurkat; assay: Resistance of Jurkat transfectants to apoptosis induced by serum withdrawal (trypan blue exclusion); format: cell-based; settings: serum-free RPMI1640, surviving cells counted daily (FIG. 3)
Protocol: The cells were washed 3 times with PBS and suspended in RPMI1640 medium containing no serum at 1×10^5 cells/ml. […] The number of the cells was carefully controlled to be less than 5×10^5 cells/ml. When the cell number was expected to exceed the limitation, the culture medium was diluted 2 fold. Every 3 days, the half of the serum-free medium was replaced with the fresh medium.

[3] = system: Chinese hamster ovary cell CHO; assay: Incubation of CHO transfectants in serum-free medium; format: cell-based
Protocol: The CHO cells (1×10^5 cells) were suspended in culture medium DMEM/F-12 (GIBCO BRL) containing 10% fetal bovine serum, and incubated in a 60-mm dish overnight. The linearized pEF1-BOSbcl-xY22F/Q26N/R165K (10 μg) and the linearized pST-neoB (0.5 μg) having a drug Geneticin-resistant gene were introduced into the CHO cells using a SuperFect Transfection Reagent kit (Qiagen). As a control, the linearized empty vector pEF1-BOS or the linearized pEF1-BOSbcl-x were introduced together with the linearized pST-neoB into the CHO cells. After the transfection treatment, the cells were incubated in culture medium DMEM/F-12 containing 10% fetal bovine serum overnight. Geneticin (700 μg/ml) was added, and the incubation was continued to yield the transfected cells. In the same manner as in Example 3, the transfectants expressing the improved protein Bcl-xFNK or the wild-type Bcl-xL abundantly and to the same level were selected. Thus, CHObcl-x, CHObcl-xFNK, and CHOvec (transfected with the empty vector) were obtained.
Three transfectants, CHObcl-x, CHObcl-xFNK, and CHOvec, prepared in Example 6 were incubated in culture medium DMEM/F-12 containing 10% fetal bovine serum. The cells (1×10^3 cells) were plated in a 100-mm dish containing the medium DMEM/F-12 containing 3% fetal bovine serum. […]

[4] = system: murine premyeloid cell line FDC-P1; assay: Resistance of FDC-P1 transfectants to apoptosis induced by depletion of the cytokine IL-3; format: cell-based
Source text: (§1) For the transfectant FDC-P1bcl-xFNK cells prepared in Example 2, the resistance was examined to a variety of apoptosis-inducing stimuli. In these figures, the empty marks, ⋄, □, Δ, ∇, and ◯ represent 5 independent transfectants, FDC-P1bcl-xFNK-1, -2, -3, -4, and -5, respectively. […] The mark ▪ represents FDC-P1vec in which the empty vector plasmid DNA has been introduced.
The result are shown in FIG. 16, in which the number of the surviving cells immediately after depletion of IL-3 was taken as 100%. In this experiment, the cells other than FDC-P1vec were diluted 5 times with the fresh medium containing no IL-3 every 3rd day.

[5] = system: human leukemia cell line Jurkat; assay: Dehydrogenase activity of Jurkat transfectants after heat treatment (WST-1 assay); format: cell-based; settings: 45° C. for 10 minutes, 1st day (FIG. 13)
Protocol: The cells were harvest by centrifugation, then suspended in an equal amount of the fresh culture medium, and incubated at 37° C. In addition, dehydrogenase activities of the cells (100 μl of the culture broth) were determined at 1st day using the Cell Counting Kit (Dojin Chemical) and WST-1 as a substrate (WST-1 Assay). The results are shown in FIG. 13, wherein the enzyme activity of the cells without heat treatment was taken as 100%.

[6] = system: human leukemia cell line Jurkat; assay: Resistance of Jurkat transfectants to anti-Fas antibody (trypan blue exclusion); format: cell-based; settings: anti-Fas antibody CH-11 1-1000 ng/ml, 1 day (FIG. 4)
Protocol: The results are shown in FIG. 4, wherein the number of the cells incubated without the antibody was taken as 100%.

[7] = system: murine premyeloid cell line FDC-P1; assay: Resistance of FDC-P1 transfectants to TN-16 and staurosporine (WST-1 assay); format: cell-based; settings: TN-16 50 μM
Protocol: as §1
The cells were suspended in culture medium at 2×10^5 cells/ml, to which TN-16 (50 μM) and staurosporine (10 nM) was then added. The dehydrogenase activity of the cells (100 μl of the culture broth) was determined daily using the Cell Counting Kit (Dojin Chemical) and WST-1 as a substrate (WST-1 Assay). The enzyme activity was taken as 100% immediately before addition of the agents.

[8] = system: human leukemia cell line Jurkat; assay: Resistance of Jurkat transfectants to heat treatment (trypan blue exclusion); format: cell-based; settings: 45° C. for 10 minutes (FIG. 12)
[9] = system: human leukemia cell line Jurkat
Protocol: For the transfected Jurkatbcl-xFNK cells prepared in Example 2, the resistance (non-sensitivity) to a variety of apoptosis-inducing stimuli was examined.
The cells were suspended in RPMI1640 medium at 1×10^5 cells/ml, to which staurosporine (20 nM), TN-16 (10 μM), camptothecin (10 μM), hydroxyurea (1 mM), trichostatin A (0.25 μg/ml), hydrogen peroxide (0.05 mM), or paraquat (1 mM) was then added. And the cells were incubated. The surviving cells were counted by the trypan blue exclusion everyday.

| Molecule | incorporation of the protein into cells (HeLa cells) | inhibition of degeneration of hepatic tissue and cell death caused by dexamethasone (hepatocytes) | inhibition of the death of chondrocyte [1] | survival of transfected cells after serum withdrawal [2] | growth of transfected CHO cells in serum-free medium ([3]; DMEM/F-12 lacking serum from day 6, another 6 days (FIG. 17)) | dying or dead cells in colonies in serum-free medium ([3]; compared with CHObcl-x expressing Bcl-xL (FIG. 17)) | growth in the absence of IL-3 ([4]; medium without IL-3) | resistance to apoptosis induced by depletion of IL-3 ([4]; medium without IL-3 but with serum (FIG. 16)) | dehydrogenase activity after heat treatment (WST-1) [5] | resistance of transfected cells to anti-Fas antibody [6] | resistance of transfected cells to TN-16 and staurosporine ([7]; FDC-P1 transfectants (5 independent), staurosporine 10 nM (FIGS. 14, 15)) | dehydrogenase activity under TN-16 and staurosporine (WST-1) ([7]; FDC-P1 transfectants, staurosporine 10 nM, daily) | resistance of transfected cells to heat treatment [8] | resistance of transfected cells to cytotoxic drugs [9] |
| --- | --- | --- | --- | --- | --- | --- | --- | --- | --- | --- | --- | --- | --- | --- |
| TAT-Bcl-xFNK: Bcl-xFNK in which a protein-transduction-domain peptide of HIV TAT protein is fused at the N-terminal (protein) YGRKKRRQRRRMSQSNRELVVDFLSYKLSQKGFSWSNFSDVEENRTEAPEETEPERETPSAINGNPSWHLADSPAVNGATGHSSSLDAREVIPMAAVKQALREAGDEFELRYRRAFSDLTSQLHITPGTAYQSFEQVVNELFRDGVNWGRIVAFFSFGGALCVESVDKEMQVLVSKIASWMATYLNDHLEPWIQENGGWDTFVDLYGNNAAAESRKGQERFNRWFLTGMTVAGVVLLGSLFSRK | has passed through the cellular membrane and has been incorporated in the cells | markedly inhibited | inhibits the death of chondrocyte more strongly than TAT-Bcl-xL |  |  |  |  |  |  |  |  |  |  |  |
| Bcl-xFNK: improved protein of rat Bcl-xL, SEQ ID NO: 3, with substitutions Tyr22Phe; Gln26Asn; Arg165Lys (protein, Artificial Sequence Modified Protein of SEQ ID NO 2, Gln26Asn; Arg165Lys) MSQSNRELVVDFLSYKLSQKGFSWSNFSDVEENRTEAPEETEPERETPSAINGNPSWHLADSPAVNGATGHSSSLDAREVIPMAAVKQALREAGDEFELRYRRAFSDLTSQLHITPGTAYQSFEQVVNELFRDGVNWGRIVAFFSFGGALCVESVDKEMQVLVSKIASWMATYLNDHLEPWIQENGGWDTFVDLYGNNAAAESRKGQERFNRWFLTGMTVAGVVLLGSLFSRK |  |  |  | survived for a longer period than the wild-type Bcl-xL-expressing cells | grew far better than CHOvec | fewer cells were dying or dead | could grow even in the absence of IL-3 | higher resistance than the transfectant expressing the wild-type Bcl-xL | maintained at high level even after heat treatment | high resistance to the highly concentrated anti-Fas antibody | high resistance to treatment with TN-16 and staurosporine | maintained at high level | high resistance to heat treatment | high resistance to all of the cytotoxic drugs tested |
| Bcl-xL: wild-type protein expressed from the rat bcl-x gene, SEQ ID NO: 2 (protein, listed as Rattus norvegicus) MSQSNRELVVDFLSYKLSQKGYSWSQFSDVEENRTEAPEETEPERETPSAINGNPSWHLADSPAVNGATGHSSSLDAREVIPMAAVKQALREAGDEFELRYRRAFSDLTSQLHITPGTAYQSFEQVVNELFRDGVNWGRIVAFFSFGGALCVESVDKEMQVLVSRIASWMATYLNDHLEPWIQENGGWDTFVDLYGNNAAAESRKGQERFNRWFLTGMTVAGVVLLGSLFSRK |  |  |  | survived longer than the control parent cells and the vector-transfected cells |  |  |  |  |  |  |  |  |  |  |
